Reference: the supplement of paper PMC10126150
± gives the standard deviation of the averaged measurements.
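Also: ATP exposure 15 min at 22 °C before imaging.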

Each sequence was assayed on ATP (assay: switch fluorescence ratio, 500 uM ATP over buffer (Cy3 cluster intensity, sum of 5 cycles each) (fold (ratio)); higher = stronger signal-on switching upon ATP binding; sequences stand for … in TCGTCGGCAGCGTCAGATGTGTATAAGAGACAGTTTTTTTTTTTTTTTTTTTTTTTTT…TC). Settings: aptamer strand: ATP DNA aptamer (quencher-CACCTGGGGGAGTATTGCGGAGGAAGG + anchor), 100 nM annealed; ATP concentration: 500 uM.
Outline: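 Clusters carrying Cy3-labelled switching strands on a modified Illumina MiSeq flow-cell were annealed to 100 nM quencher-labelled ATP aptamer and imaged in selection buffer. They were imaged again after 15 min with 500 uM ATP at 22 °C, over five buffer/ATP cycles with NaOH stripping and re-annealing in between. For each cluster, the fluorescence ratio is the summed Cy3 intensity of the target cycles divided by that of the buffer cycles, averaged per switch-domain sequence. Clusters outside 100-1000 RFU were left out.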
Sequence GCTCCCTTTC has a switch fluorescence ratio of 1.84 ± 0.08.
GCTCCTAAAA was tested, and the switch fluorescence ratio was 1.1039 ± 0.00034.
GCTCGAGTTG was tested, and the switch fluorescence ratio was 0.9967 ± 0.0094.
For GCTCGATTGG, the switch fluorescence ratio was 0.9766 ± 0.0057.
GCTCGCCGAT gave a switch fluorescence ratio of 1.01 ± 0.016.
GCTCGCCTTA was tested, and the switch fluorescence ratio was 0.999 ± 0.039.
With GCTCGGCCCG the switch fluorescence ratio was 1.04 ± 0.061.
GCTCGGGTTG gave a switch fluorescence ratio of 0.984 ± 0.041.
In the case of GCTCGTTAGG, the switch fluorescence ratio is reported as 0.995 ± 0.029.
GCTCTCATAT showed a switch fluorescence ratio of 1.027 ± 0.0086.
Work on GCTCTGAGGG yielded a switch fluorescence ratio of 1.056 ± 0.009.
GCTCTGTGGG was tested, and the switch fluorescence ratio was 0.967 ± 0.024.
GCTCTGTGTT was tested, and the switch fluorescence ratio was 0.993 ± 0.017.
With GCTCTGTTTT the switch fluorescence ratio was 1 ± 0.011.
Sequence GCTCTTGACA has a switch fluorescence ratio of 1 ± 0.011.
GCTCTTGGTT was tested, and the switch fluorescence ratio was 1.02 ± 0.045.
Sequence GCTGAAGGCT has a switch fluorescence ratio of 0.962 ± 0.03.
With GCTGAAGGGT the switch fluorescence ratio was 1.012 ± 0.0019.
GCTGAATAAT showed a switch fluorescence ratio of 1.01 ± 0.029.
GCTGAATTTG showed a switch fluorescence ratio of 0.989 ± 0.058.
For GCTGAGGCAA, the switch fluorescence ratio was 1.06 ± 0.015.
Sequence GCTGAGGCAG has a switch fluorescence ratio of 1.002 ± 0.0046.
GCTGAGGGGA was tested, and the switch fluorescence ratio was 1.03 ± 0.049.
In the case of GCTGAGGGGG, the switch fluorescence ratio is reported as 0.991 ± 0.041.
With GCTGATAATG the switch fluorescence ratio was 0.978 ± 0.014.
For GCTGATGCGT, the switch fluorescence ratio was 1.01 ± 0.038.
For GCTGATTGGC, the switch fluorescence ratio was 1.05 ± 0.13.
GCTGATTTGT was tested, and the switch fluorescence ratio was 0.989 ± 0.038.
GCTGCAGATT was tested, and the switch fluorescence ratio was 0.988 ± 0.03.
GCTGCAGGGT was tested, and the switch fluorescence ratio was 0.9922 ± 0.009.
In the case of GCTGCCGTGT, the switch fluorescence ratio is reported as 0.967 ± 0.064.
GCTGCGGGAT gave a switch fluorescence ratio of 1.16 ± 0.15.
For GCTGCGGGG, the switch fluorescence ratio was 1.01 ± 0.053.
In the case of GCTGCTGGGC, the switch fluorescence ratio is reported as 0.968 ± 0.036.
GCTGCTTAGC was tested, and the switch fluorescence ratio was 1.02 ± 0.018.
GCTGCTTGGG showed a switch fluorescence ratio of 1.01 ± 0.019.
Sequence GCTGGAAGTA has a switch fluorescence ratio of 0.97 ± 0.046.
Sequence GCTGGAATAT has a switch fluorescence ratio of 1 ± 0.039.
For GCTGGAATTG, the switch fluorescence ratio was 1 ± 0.0077.
GCTGGACTCG gave a switch fluorescence ratio of 1.053 ± 0.0015.
GCTGGACTTG gave a switch fluorescence ratio of 0.998 ± 0.053.
GCTGGAGGAC showed a switch fluorescence ratio of 0.996 ± 0.032.
Sequence GCTGGAGGGG has a switch fluorescence ratio of 0.985 ± 0.018.
Work on GCTGGATTGG yielded a switch fluorescence ratio of 0.965 ± 0.016.
GCTGGGAGGC gave a switch fluorescence ratio of 0.947 ± 0.071.
In the case of GCTGGGCCGA, the switch fluorescence ratio is reported as 1.01 ± 0.036.
Sequence GCTGGGGAAA has a switch fluorescence ratio of 0.996 ± 0.032.
With GCTGGGGGAA the switch fluorescence ratio was 0.98 ± 0.019.
GCTGGGGTTT showed a switch fluorescence ratio of 0.996 ± 0.043.
Sequence GCTGGGTCTG has a switch fluorescence ratio of 1 ± 0.017.
GCTGGGTGTG gave a switch fluorescence ratio of 1.03 ± 0.011.
GCTGGTACAG was tested, and the switch fluorescence ratio was 1 ± 0.022.
For GCTGGTACTG, the switch fluorescence ratio was 0.986 ± 0.037.
Sequence GCTGGTAGTT has a switch fluorescence ratio of 0.995 ± 0.028.
With GCTGGTGTGG the switch fluorescence ratio was 0.995 ± 0.011.
GCTGGTTAGG was tested, and the switch fluorescence ratio was 1 ± 0.032.
Work on GCTGGTTCTG yielded a switch fluorescence ratio of 0.982 ± 0.054.
In the case of GCTGGTTGAC, the switch fluorescence ratio is reported as 0.981 ± 0.017.
GCTGGTTGGG was tested, and the switch fluorescence ratio was 0.98 ± 0.014.
Sequence GCTGTAAGAA has a switch fluorescence ratio of 1.01 ± 0.037.
GCTGTACGCT showed a switch fluorescence ratio of 0.9539 ± 0.0027.
In the case of GCTGTACTCA, the switch fluorescence ratio is reported as 1.43 ± 0.13.
GCTGTAGACT showed a switch fluorescence ratio of 0.992 ± 0.038.
For GCTGTAGGGC, the switch fluorescence ratio was 1.015 ± 0.0034.
Sequence GCTGTAGTGG has a switch fluorescence ratio of 0.998 ± 0.051.
GCTGTAGTTG showed a switch fluorescence ratio of 0.993 ± 0.019.
Work on GCTGTCTATC yielded a switch fluorescence ratio of 1.01 ± 0.027.
Work on GCTGTGGCGT yielded a switch fluorescence ratio of 1.02 ± 0.04.
GCTGTGGGGG was tested, and the switch fluorescence ratio was 0.966 ± 0.013.
GCTGTTAGTG gave a switch fluorescence ratio of 0.98 ± 0.013.
Work on GCTGTTCCCG yielded a switch fluorescence ratio of 1.04 ± 0.071.
Sequence GCTGTTCTTC has a switch fluorescence ratio of 0.985 ± 0.013.
GCTTAAACGG showed a switch fluorescence ratio of 1.02 ± 0.073.
In the case of GCTTAAAGGC, the switch fluorescence ratio is reported as 1.01 ± 0.03.
Work on GCTTACGTCA yielded a switch fluorescence ratio of 1.05 ± 0.086.
GCTTAGGGGG was tested, and the switch fluorescence ratio was 1.031 ± 0.0069.
Sequence GCTTAGTTGT has a switch fluorescence ratio of 1.015 ± 0.0065.
Sequence GCTTATATAT has a switch fluorescence ratio of 0.98542 ± 0.00086.
GCTTATATTT gave a switch fluorescence ratio of 1.045 ± 0.0055.
For GCTTCCTGCC, the switch fluorescence ratio was 1.4 ± 0.027.
For GCTTCTATTG, the switch fluorescence ratio was 1.001 ± 0.00067.
GCTTCTGCCT gave a switch fluorescence ratio of 1 ± 0.013.
In the case of GCTTCTTAGT, the switch fluorescence ratio is reported as 1.028 ± 0.0053.
In the case of GCTTGACG, the switch fluorescence ratio is reported as 1.004 ± 0.01.
Sequence GCTTGATGAA has a switch fluorescence ratio of 1.034 ± 0.0013.
For GCTTGATTAG, the switch fluorescence ratio was 0.9963 ± 0.0018.
Sequence GCTTGATTGG has a switch fluorescence ratio of 1.04 ± 0.019.
In the case of GCTTGGCAAC, the switch fluorescence ratio is reported as 1.02 ± 0.012.
Work on GCTTGGCTGT yielded a switch fluorescence ratio of 0.999 ± 0.017.
Work on GCTTGGGGGT yielded a switch fluorescence ratio of 0.987 ± 0.018.
GCTTGTAGTT was tested, and the switch fluorescence ratio was 0.9865 ± 0.0072.
For GCTTGTGCAT, the switch fluorescence ratio was 0.989 ± 0.028.
GCTTGTTTGG showed a switch fluorescence ratio of 0.961 ± 0.013.
GCTTGTTTTT gave a switch fluorescence ratio of 0.997 ± 0.018.
For GCTTTAGAGA, the switch fluorescence ratio was 0.985 ± 0.019.
GCTTTCGGGC showed a switch fluorescence ratio of 1.01 ± 0.045.
GCTTTCGTTA gave a switch fluorescence ratio of 1.018 ± 0.0071.
For GCTTTTCGAT, the switch fluorescence ratio was 0.994 ± 0.035.
In the case of GCTTTTGCCG, the switch fluorescence ratio is reported as 0.993 ± 0.036.
GCTTTTGCGG was tested, and the switch fluorescence ratio was 0.981 ± 0.045.
GCTTTTTAGT was tested, and the switch fluorescence ratio was 1.006 ± 0.0021.
In the case of GCTTTTTCCA, the switch fluorescence ratio is reported as 0.975 ± 0.035.
Work on GCTTTTTGC yielded a switch fluorescence ratio of 0.951 ± 0.065.
With GCTTTTTGTA the switch fluorescence ratio was 0.981 ± 0.032.
With GCTTTTTGTC the switch fluorescence ratio was 1.06 ± 0.013.
With GGAAAAGTTT the switch fluorescence ratio was 0.986 ± 0.04.
In the case of GGAAAATAAT, the switch fluorescence ratio is reported as 1.01 ± 0.035.
In the case of GGAAAATGTA, the switch fluorescence ratio is reported as 1.023 ± 0.0063.
In the case of GGAAAATTTT, the switch fluorescence ratio is reported as 0.994 ± 0.033.
With GGAAAGATGT the switch fluorescence ratio was 1.01 ± 0.027.
GGAAAGATTG was tested, and the switch fluorescence ratio was 0.991 ± 0.041.
GGAAAGCGTG was tested, and the switch fluorescence ratio was 0.993 ± 0.084.
Work on GGAAAGGGGT yielded a switch fluorescence ratio of 1.03 ± 0.082.
GGAAAGTAGG was tested, and the switch fluorescence ratio was 1.01 ± 0.046.
For GGAAATATCG, the switch fluorescence ratio was 0.989 ± 0.021.
In the case of GGAAATGAAT, the switch fluorescence ratio is reported as 1.02 ± 0.029.
Work on GGAAATTGGG yielded a switch fluorescence ratio of 0.994 ± 0.016.
For GGAACAAGGT, the switch fluorescence ratio was 0.988 ± 0.059.
In the case of GGAACCCGTG, the switch fluorescence ratio is reported as 0.997 ± 0.048.
Work on GGAACGAAAG yielded a switch fluorescence ratio of 0.995 ± 0.043.
GGAACGGGCT gave a switch fluorescence ratio of 1 ± 0.021.
GGAACGGGGG was tested, and the switch fluorescence ratio was 1.02 ± 0.014.
In the case of GGAACGTGAG, the switch fluorescence ratio is reported as 1.011 ± 0.0011.
With GGAACTGGCG the switch fluorescence ratio was 0.938 ± 0.094.
Work on GGAACTTGTT yielded a switch fluorescence ratio of 0.99 ± 0.012.
GGAAGAAAAA was tested, and the switch fluorescence ratio was 1.01 ± 0.067.
Sequence GGAAGAAAAC has a switch fluorescence ratio of 1.008 ± 0.0045.
With GGAAGAAGAT the switch fluorescence ratio was 0.982 ± 0.033.
GGAAGAGAAC gave a switch fluorescence ratio of 0.995 ± 0.017.
In the case of GGAAGATTCG, the switch fluorescence ratio is reported as 0.984 ± 0.03.
Sequence GGAAGCTTCC has a switch fluorescence ratio of 1.127 ± 0.0032.
GGAAGGAGGA was tested, and the switch fluorescence ratio was 0.973 ± 0.015.
For GGAAGGGATG, the switch fluorescence ratio was 1 ± 0.026.
GGAAGGGGCT showed a switch fluorescence ratio of 1.08 ± 0.12.
GGAAGGGGGG gave a switch fluorescence ratio of 1.01 ± 0.024.
GGAAGGTACG showed a switch fluorescence ratio of 0.9856 ± 0.0062.
For GGAAGGTTCG, the switch fluorescence ratio was 1.01 ± 0.033.
With GGAAGTATTA the switch fluorescence ratio was 0.966 ± 0.017.
Work on GGAAGTGTGG yielded a switch fluorescence ratio of 1 ± 0.05.
Sequence GGAAGTGTGT has a switch fluorescence ratio of 0.949 ± 0.021.
Sequence GGAAGTTAGA has a switch fluorescence ratio of 0.9819 ± 0.0036.
GGAATAGGGG was tested, and the switch fluorescence ratio was 0.991 ± 0.018.
GGAATAGTGG gave a switch fluorescence ratio of 0.982 ± 0.025.
GGAATATGTG was tested, and the switch fluorescence ratio was 0.998 ± 0.0093.
In the case of GGAATCATGG, the switch fluorescence ratio is reported as 0.996 ± 0.046.
In the case of GGAATCATTT, the switch fluorescence ratio is reported as 0.972 ± 0.015.
For GGAATCGGAA, the switch fluorescence ratio was 1.02 ± 0.034.
GGAATCTGTT was tested, and the switch fluorescence ratio was 0.993 ± 0.068.
GGAATGAAGG gave a switch fluorescence ratio of 1 ± 0.0041.
Work on GGAATGGGGC yielded a switch fluorescence ratio of 0.993 ± 0.052.
GGAATGGGTA showed a switch fluorescence ratio of 0.997 ± 0.027.
With GGAATGTACG the switch fluorescence ratio was 1 ± 0.041.
GGAATGTGTT showed a switch fluorescence ratio of 0.972 ± 0.013.
